Assay results as given in patent publication US11268099.
pKd: −log10 of the molar value.

Assays:
[1] = test system: 2G12 (anti-HIV-1 gp120 carbohydrate-binding monoclonal antibody); assay: BLI; details: N are Man9-derivatized dU (3 sites); 5' A5 spacer [26,33,39]; 1:1 global fit; kon 2.04e4 /M/s, koff 2.53e-4 /s
[2] = test system: 2G12 (anti-HIV-1 gp120 carbohydrate-binding monoclonal antibody); assay: filter

“AAAAACGGGTACGGGAGACCCACGGTGCAACCTACGGATAAAGCACACAGGAGACGACAAG [Clone 1 biotinylated glycoDNA (BLI)]” was tested, and the pKd [1] was 7.91.
Sequence “CGGGTACGGGAGACCCACAGTGCAACCTACGGATAAAGCACACAGGAGACGACAAG [Clone 2 glycoDNA]” has a pKd ([2]; all T in random region are EdU-Man9 (3 sites), 20 mM Tris pH 7.5, 150 mM NaCl, 4 mM MgSO4, BSA, binding at 37 C also shown in FIG. 11) of 8.77.
For “CGGGTACGGGAGACCCATGGTGCAACCTACGGATAAAGCACACAGGAGACGACAAG [Clone 7 glycoDNA]”, the pKd ([2]; all T in random region are EdU-Man9, moderate binding, Mg2+ buffer) was 7.92.
